Data taken from paper PMC5826766.

System: CN(CC(=O)O)C(=O)CN
Experiment: concentration-dependent cellular uptake, HPLC-MS/MS, mock-corrected, Km
Type: cell-based, Homo sapiens

Work on “hPHT1 (human peptide/histidine transporter 1, SLC15A4) (Homo sapiens; L14A/L15A/L318A/V319A)” yielded a Km of 1690 ± 300 µM, a Vmax of 0.0001 µmol/min/mg and a Vmax/Km of 0.0592 µL/min/mg.
